For one substance, Km results are on record in patent US10202584B2, “Red-shifted luciferase-luciferin pairs for enhanced bioluminescence” (The Regents of the University of California, priority 2016, dated 2019).

Common to all, as to assay: purified protein, by the assay type
Holding throughout (conditions): other: apparent, 100 pM enzyme, substrate 0.78 to 50 μM, assay buffer pH 6.0, mean ± s.d., n = 3, 37.0 °C

In series [1] the test system is O=c1c(Cc2ccccc2)nc2c(-c3ccccc3)[nH]c(-c3ccccc3)cn1-2.
The subject of series [2] is O=c1c(Cc2ccco2)nc2c(Cc3ccccc3)[nH]c(-c3ccccc3)cn1-2.
Series [3] concerns O=c1c(Cc2ccccc2)nc2c([Se]c3ccccc3)[nH]c(-c3ccccc3)cn1-2.

In general, Km refers to the concentration of substrate that gives half-maximal velocity. Consider “NanoLuc luciferase (Oplophorus gracihrostris-derived, parent, SEQ ID NO: 1) (Oplophorus gracilirostris; A31E/A60N/A81I/F95D/I117V/K70R/L54V/L99Q/M102K/N193R/P142E/Q151K/Q38R/Q45L/V71I/Y165I)”, for which the Km was determined as 5.3 ± 0.2 µM in series [1], 11.5 ± 0.6 µM in series [2] and 17.8 ± 1.0 µM in series [3].
